The values that follow come from patent US20130310317A1 (Bristol-Myers Squibb, published 2013).

Where two headings read alike, the source gives them in different places.

The IC50 is the concentration that gives 50% inhibition. The Kd is the equilibrium constant for the complex coming apart. Low readings indicate a tighter complex, high ones a looser complex. The term koff denotes the rate constant with which the complex falls apart. Low values mean slow dissociation, high ones fast dissociation. The term kon denotes a measure of how fast the partners come together. High values mean faster complex formation, low ones slower complex formation. As usually defined, the EC50 (read off the curve) is the midpoint of the concentration-response curve.

Experiment [1] deals with T1, human IGF-IR on cells (human, UniProt P08069 31-1367). Briefly: displacement of 40 pM [125I]-IGF-I from MCF-7 cells, on ice, cell-bound CPM. How it is done:
(§1) Cells were subsequently lysed and radioactivity was quantitated.
(§2) The human breast adenocarcinoma MCF-7 (ATCC, Manassas, Va.) was plated in 24 well plates at a concentration of 50,000 cells per well in RPMI 1640 (Invitrogen, Carlsbad, Calif.) containing 10% fetal bovine serum (Hyclone, Logan, Utah). The following day, cells were washed in binding buffer consisting of RPMI 1640 containing 0.1% BSA (Sigma, St. Louis, Mo.), and then pre-incubated for 30 minutes on ice in 200 μL binding buffer containing IGF-IR competitor. […] The wells were then washed with ice cold PBS containing 0.1% BSA. Cells were lysed with 500 μL buffer consisting of 0.1% SDS+0.5 N NaOH. Radioactivity of the lysates was measured using a Wallac 1470 Gamma Counter (Perkin Elmer, Wellesley, Mass.), and the data were analyzed using SigmaPlot (Systat Software, Point Richmond, Calif.).

The target of experiment [2] is T1, human IGF-IR on cells. Briefly: displacement of [125I]-IGF-I from MCF-7 cells. How it is done:
as §1, §2
On the technique in general: Loss of bound radioactivity is the signal in a displacement assay; it reports binding, not function.

Experiment [3] addresses T1, human IGF-IR on cells. As to the kind of experiment: cell-based or functional assay.
Experiment [4] addresses T2, recombinant human insulin receptor (human, UniProt P06213-2 28-944, limits assumed).
T2 construct: Amine-coupled to a CM5 chip (8300 RU); also called IR
As to the kind of experiment: SPR (BIAcore); IR amine-coupled to chip, clone at 10 µM, signal as % of insulin signal. How it is done:
(§3) One liter E. coli growths of selected optimized clones were prepared and the proteins were purified.
(§4) In brief, 60 ug/mL of IR diluted in acetate 4.5 was coupled/immobilized to a level of 8300 RU and 11.9 ug/mL of VEGF-R2-Fc diluted in acetate 5.0 was immobilized to a level of 9700 RU on flow cells 2 and 3. A blank reference surface was prepared on FC 1. […] Fibronectin-based scaffold proteins were diluted to 10 uM in HBS-EP (10 mM Hepes 150 mM NaCl 3 mM EDTA 0.05% Surfactant P20) and injected at 20 uL/min for 3 minutes over the flow cells at 25 C and dissociation was observed over 10 mins.
A general note: SPR reads the build-up and loss of mass on a sensor chip optically.

Experiment [5] addresses T3, recombinant human IGF-IR (human, UniProt P08069 31-932).
T3 construct: Bought (R&D Systems); also called insulin-like growth factor-I receptor; IGF-1R
As to the kind of experiment: competitive ELISA, coated IGF-IR, biotinylated IGF-I as competitor. How it is done:
(§5) MaxiSorp™ plates (Nunc International, Rochester, N.Y.) were coated with 30 nM IGF-IR in PBS at 4° C. overnight followed by blocking in OptEIA buffer (BD biosciences, San Diego, Calif.) for 3 hours at room temperature. Purified fibronectin-based scaffold proteins in OptEIA buffer were bound to each well for 1 hour at room temperature at concentrations ranging from 50 pM to 1 μM. […] The excess ligand was removed by washing with PBST and bound ligand was detected with streptavidin-HRP (Pierce, Rockford, Ill.) using TMB detection reagents (BD biosciences) according to the manufacturer's instructions
(In an ELISA, binding on a coated surface is turned into a signal by an enzyme label.)

Experiment [6] has as its target T4, IGF-IR-Fc (human, UniProt P08069 31-932).
T4 construct: range 1-932; Made in house by transient transfection, captured on Protein A on CM5 chips for kinetic analysis; also called human IGF-IR-Fc fusion protein; recombinant, immobilized IGF-IR (BIAcore); not shown: hinge and constant regions of human IgG1
As to the kind of experiment: SPR (BIAcore); IGF-IR-Fc captured on Protein A, clone in solution. How it is done: One liter E. coli growths of selected optimized clones were prepared and the proteins were purified. Surface plasmon resonance (BIAcore) analysis was performed using recombinant, immobilized IGF-IR and solution-phase clones in order to determine binding kinetics and binding affinities.
(§6) The binding kinetics of fibronectin-based scaffold proteins binding proteins to the target was measured using BIAcore 2000 or 3000 biosensors (Pharmacia Biosensor). A capture assay was developed utilizing an IGF-IR-Fc fusion. A similar reagent had been described by Forbes et al. (Forbes et al. 2002, European J. Biochemistry, 269, 961-968). The extracellular domain of human IGF-IR (aa 1-932) was cloned into a mammalian expression vector containing the hinge and constant regions of human IgG1. Transient transfection of the plasmid produced a fusion protein, IGF-IR-Fc which was subsequently purified by Protein A chromatography and captured on Protein A immobilized on Biasensor CM5 chips by amine coupling. The kinetic analysis involved the capture of IGF-IR-Fc on Protein A followed by injection of the fibronectin-based scaffold protein in solution and regeneration of the Protein A surface by glycine pH 2.0. Sensorgrams were obtained at each concentration and were evaluated using a program Biaevaluation, BIA Evaluation 2.0 (BIAcore), to determine the rate constants kₐ (kₒₙ) and kd (koff) The dissociation constant, KD was calculated from the ratio of rate constants koff/kₒₙ. Typically, a concentration series (2 uM to 0 uM) of purified fibronectin-based scaffold protein was evaluated for binding to protein A captured human IGF-IR-Fc fusion protein.

Experiment [7] has as its target T3, recombinant human IGF-IR. Briefly: competitive ELISA: plate coated with 30 nM IGF-IR, clone bound first, then 10 nM biotinylated IGF-I as the blocked ligand, streptavidin-HRP/TMB, OD450. As to the method:
as §5

The target in experiment [8] is T3, recombinant human IGF-IR. Briefly: direct binding ELISA: plate coated with 10 nM IGF-IR, His-tagged clone detected with His-HRP probe, TMB, OD450. As to the method: MaxiSorp™ plates (Nunc International, Rochester, N.Y.) were coated with 10 nM IGF-IR in PBS at 4° C. overnight followed by blocking in PBS-casein buffer (Pierce) for 3 hours at room temperature. Purified fibronectin-based scaffold proteins in casein buffer were bound to each well for 1 hour at room temperature at a concentration of 5 nM. The plate was washed with PBST and 100 μl of a 1:4000 dilution of His-HRP probe (Pierce) was added to each well with incubation for 15 min at room temperature. The wells were washed 5 times with PBST and the bound HRP was detected with TMB detection reagents (BD biosciences) according to the manufacturer's instructions.

Experiment [9] concerns the target T2, recombinant human insulin receptor. Briefly: SPR (BIAcore), IR amine-coupled to chip. As to the method:
as §4

For experiment [10], the target named is T4, IGF-IR-Fc. Briefly: SPR (BIAcore); IGF-IR-Fc captured on Protein A, clone in solution. How it is done:
BIAcore analysis was performed using recombinant, immobilized IGF-IR and solution-phase clones in order to determine binding kinetics and binding affinities.
as §6
The source holds these as a separate data set.

In experiment [11] the target is T4, IGF-IR-Fc. Briefly: SPR (BIAcore); IGF-IR-Fc captured on Protein A, analyte in solution. As to the method: as §6
In experiment [12] the target is T2, recombinant human insulin receptor. As to the kind of experiment: SPR (BIAcore), IR amine-coupled to chip. As to the method: as §3, §4
The source holds these as a separate data set.

Experiment [13] concerns the target T4, IGF-IR-Fc. Briefly: SPR (BIAcore); IGF-IR-Fc captured on Protein A, clone in solution. How it is done: as §6
The source holds these as a separate data set.

The target in experiment [14] is T4, IGF-IR-Fc. Briefly: SPR (BIAcore); immobilized IGF-IR, analyte in solution. How it is done: as §6

anti-IGF-IR monoclonal antibody MAB391 had an IC50 (read off the curve) with human IGF-IR on cells [1] of 2000 pM. The IC50 with human IGF-IR on cells [2] was found to be 5000 pM. The molecule also returned an IC50, serum mediated proliferation of NCI-H929 cells with human IGF-IR on cells [3] of 100 pM.

B1: 338A06 (designed binder)
chain: VSDVPRDLEVVAATPTSLLISWSARLKVARYYRITYGETGGNSPVQEFTVPKNVYTATISGLKPGVDYTITVYAVTKMRDYRPISINYRTHHHHHH
notes: Optimized derivative of 218C04; also called clone 338A06; parent clone 338A06
On to B1, for which, in [4], the “% IR Binding at 10 µM” value came to 2%. Besides, the IC50 with recombinant human IGF-IR [5] is not above 1000 pM; in the experiment with human IGF-IR on cells [2] it was 1000 to 2000 pM. In the experiment with IGF-IR-Fc [6], this molecule returned a Kd of 69 pM. The molecule further showed a koff with IGF-IR-Fc [6] of 0.00043 s⁻¹. In the experiment with IGF-IR-Fc [6], this molecule registered an on-rate (kon) of approximately 6.2e+06 M⁻¹ s⁻¹. Also, the results for the “IC50 (read off the curve)” value with human IGF-IR on cells [1] and with recombinant human IGF-IR [7] were approximately 1000 pM and approximately 700 pM, respectively. Moreover, the half-maximal effective concentration (EC50 (read off the curve)) in the experiment with recombinant human IGF-IR [8] was approximately 2000 pM. Besides, the “IC50, IGF-I-dependent proliferation of BxPC-3 cells (3H-thymidine)” value with human IGF-IR on cells [3] is 10000 to 20000 pM. Also, the binding result in experiment [9] is “no binding (tested: 10 µM)”.

B2: 385A08 (designed binder)
chain: VSDVPRDLEVVAATPTSLLISWSARLKVARYYRITYGETGGNSPVQEFTVPKNVYTATISGLKPGVDYTITVYAVTRFRDYQPISINYRTHHHHHH
notes: FG loop optimized derivative of 338A06; also called clone 385A08; unmodified 385A08
As to B2, the “IC50, serum mediated proliferation of NCI-H929 cells” value (shortened to “IC50, serum mediated proliferation”) in the experiment with human IGF-IR on cells [3] is approximately 100 pM. For the same molecule, the binding result in experiment [9] was “no binding (tested: 10 µM)”. In the experiment with IGF-IR-Fc [10], this molecule gave a dissociation constant Kd of 34 pM, a dissociation rate constant (koff) of 0.00019 s⁻¹ and a kon of 5.7e+06 M⁻¹ s⁻¹. Further, in the experiment with IGF-IR-Fc [11], binding was characterised by a dissociation constant (Kd) of 23 pM, the off-rate constant (koff) is 0.00016 s⁻¹ and the on-rate constant (kon) is 6.9e+06 M⁻¹ s⁻¹.

B3: 353H09 (designed binder)
chain: VSDVPRDLEVVAATPTSLLISWSDKLKVQRYYRITYGETGGNSPVQEFTVPKHDRTATISGLKPGVDYTITVYAVTKMRDYRPISINYRTHHHHHH
notes: Optimized derivative of 218C04
In the experiment with IGF-IR-Fc [6], B3 yielded a Kd of 57 pM, an off-rate constant (koff) of 0.00022 s⁻¹ and a kon of 3.8e+06 M⁻¹ s⁻¹. For the same molecule, the “IC50 (read off the curve)” value with recombinant human IGF-IR [7] is approximately 1000 pM. Besides, the binding result in [12] is “no binding (tested: 10 µM)”.

B4: 218C04 (designed binder)
chain: VSDVPRDLEVVAATPTSLLISWSPYLRVARYYRITYGETGGNSPVQEFTVPSSARTATISGLKPGVDYTITVYAVTPSNIIGRHYGPISINYRTHHHHHH
notes: also called clone 218C04; pre-optimized clone
B4 came in with a Kd with IGF-IR-Fc [13] of 1800 pM.

B5: 385A08-PEG40 (designed binder)
chain: GVSDVPRDLEVVAATPTSLLISWSARLKVARYYRITYGETGGNSPVQEFTVPKNVYTATISGLKPGVDYTITVYAVTRFRDYQPISINYRTEIDKPCQ
modifications: Cys97 coupled by maleimide chemistry to a mono-functional branched 40 kDa PEG
As to B5, the “fold change of on-rate (ka) relative to unmodified 385A08” value with IGF-IR-Fc [14] is approximately 10 fold slower. Further, the “IC50, serum mediated proliferation” value with human IGF-IR on cells [3] is approximately 1000 pM. In the experiment with IGF-IR-Fc [11], this molecule yielded a Kd of 355 pM, a koff of 0.00021 s⁻¹ and an on-rate constant (kon) of 600000 M⁻¹ s⁻¹.

B6: 385A08-PEG20-385A08 (designed binder)
chain: GVSDVPRDLEVVAATPTSLLISWSARLKVARYYRITYGETGGNSPVQEFTVPKNVYTATISGLKPGVDYTITVYAVTRFRDYQPISINYRTEIDKPCQ
modifications: Cys97 coupled by maleimide chemistry to a linear 20 kDa bifunctional PEG that links the two chains
notes: Two copies of 385A08 with the C-terminal Cys extension, joined through PEG; also called PEG20-385A08-PEG20 variant
Consider B6, for which, in the experiment with IGF-IR-Fc [14], the “fold change of on-rate (ka) relative to unmodified 385A08” value was approximately 2 fold faster. Moreover, the “IC50, serum mediated proliferation” value in the experiment with human IGF-IR on cells [3] was less than 0.1 pM. In the experiment with IGF-IR-Fc [11], this molecule came in with a dissociation constant (Kd) of 6 pM, a koff of 9e-05 s⁻¹ and a kon of 1.5e+07 M⁻¹ s⁻¹.
